Data from the supplement of paper PMC6379048.

How the values were obtained:
Experiment in all cases: Kd (EC50 corrected by depletion factor)
[1] = target: XRN1 (UniProt Q8IZH2)
Outline: (§1)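 Free RNA oligos (0 nM to 30 μM) competed for 1 h at 4°C in HEK293-FT lysate (2.5 mg protein/well) before a 30 min, 4°C pulldown with the same oligos on NHS-Sepharose beads. Bound proteins were quantified by label-free LC-MS/MS and normalised to the control. Kd was found by multiplying EC50, from a four-parameter log-logistic fit, by a protein-dependent depletion factor.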

[2] = target: T1, CHERP (UniProt Q8IWX8)
T1 sequence: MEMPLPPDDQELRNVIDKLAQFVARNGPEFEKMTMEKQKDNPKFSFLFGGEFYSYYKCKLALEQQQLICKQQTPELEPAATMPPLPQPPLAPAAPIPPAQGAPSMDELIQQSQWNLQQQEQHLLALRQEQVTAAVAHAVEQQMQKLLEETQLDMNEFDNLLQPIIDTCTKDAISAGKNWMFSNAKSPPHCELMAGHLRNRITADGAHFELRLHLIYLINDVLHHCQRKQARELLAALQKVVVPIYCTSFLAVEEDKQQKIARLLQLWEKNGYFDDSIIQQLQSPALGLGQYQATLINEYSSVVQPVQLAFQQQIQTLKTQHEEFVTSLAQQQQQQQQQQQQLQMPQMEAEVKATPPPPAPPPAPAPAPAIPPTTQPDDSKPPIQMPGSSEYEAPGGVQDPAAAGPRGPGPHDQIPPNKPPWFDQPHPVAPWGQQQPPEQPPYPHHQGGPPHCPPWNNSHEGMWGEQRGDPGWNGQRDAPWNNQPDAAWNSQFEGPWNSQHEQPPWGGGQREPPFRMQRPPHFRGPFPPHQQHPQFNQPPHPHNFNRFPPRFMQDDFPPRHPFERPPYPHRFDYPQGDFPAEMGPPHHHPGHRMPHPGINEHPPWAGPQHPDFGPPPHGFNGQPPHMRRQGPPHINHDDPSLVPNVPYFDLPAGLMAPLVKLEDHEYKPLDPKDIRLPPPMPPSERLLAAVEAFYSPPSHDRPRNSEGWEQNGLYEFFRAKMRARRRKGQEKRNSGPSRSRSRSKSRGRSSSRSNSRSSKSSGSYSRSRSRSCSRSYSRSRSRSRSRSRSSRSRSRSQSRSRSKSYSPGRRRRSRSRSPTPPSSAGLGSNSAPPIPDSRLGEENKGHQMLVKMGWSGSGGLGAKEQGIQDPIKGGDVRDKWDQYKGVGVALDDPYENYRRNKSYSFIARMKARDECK
Outline: as §1

[3] = target: T2, WDR33 (UniProt Q9C0J8)
T2 sequence: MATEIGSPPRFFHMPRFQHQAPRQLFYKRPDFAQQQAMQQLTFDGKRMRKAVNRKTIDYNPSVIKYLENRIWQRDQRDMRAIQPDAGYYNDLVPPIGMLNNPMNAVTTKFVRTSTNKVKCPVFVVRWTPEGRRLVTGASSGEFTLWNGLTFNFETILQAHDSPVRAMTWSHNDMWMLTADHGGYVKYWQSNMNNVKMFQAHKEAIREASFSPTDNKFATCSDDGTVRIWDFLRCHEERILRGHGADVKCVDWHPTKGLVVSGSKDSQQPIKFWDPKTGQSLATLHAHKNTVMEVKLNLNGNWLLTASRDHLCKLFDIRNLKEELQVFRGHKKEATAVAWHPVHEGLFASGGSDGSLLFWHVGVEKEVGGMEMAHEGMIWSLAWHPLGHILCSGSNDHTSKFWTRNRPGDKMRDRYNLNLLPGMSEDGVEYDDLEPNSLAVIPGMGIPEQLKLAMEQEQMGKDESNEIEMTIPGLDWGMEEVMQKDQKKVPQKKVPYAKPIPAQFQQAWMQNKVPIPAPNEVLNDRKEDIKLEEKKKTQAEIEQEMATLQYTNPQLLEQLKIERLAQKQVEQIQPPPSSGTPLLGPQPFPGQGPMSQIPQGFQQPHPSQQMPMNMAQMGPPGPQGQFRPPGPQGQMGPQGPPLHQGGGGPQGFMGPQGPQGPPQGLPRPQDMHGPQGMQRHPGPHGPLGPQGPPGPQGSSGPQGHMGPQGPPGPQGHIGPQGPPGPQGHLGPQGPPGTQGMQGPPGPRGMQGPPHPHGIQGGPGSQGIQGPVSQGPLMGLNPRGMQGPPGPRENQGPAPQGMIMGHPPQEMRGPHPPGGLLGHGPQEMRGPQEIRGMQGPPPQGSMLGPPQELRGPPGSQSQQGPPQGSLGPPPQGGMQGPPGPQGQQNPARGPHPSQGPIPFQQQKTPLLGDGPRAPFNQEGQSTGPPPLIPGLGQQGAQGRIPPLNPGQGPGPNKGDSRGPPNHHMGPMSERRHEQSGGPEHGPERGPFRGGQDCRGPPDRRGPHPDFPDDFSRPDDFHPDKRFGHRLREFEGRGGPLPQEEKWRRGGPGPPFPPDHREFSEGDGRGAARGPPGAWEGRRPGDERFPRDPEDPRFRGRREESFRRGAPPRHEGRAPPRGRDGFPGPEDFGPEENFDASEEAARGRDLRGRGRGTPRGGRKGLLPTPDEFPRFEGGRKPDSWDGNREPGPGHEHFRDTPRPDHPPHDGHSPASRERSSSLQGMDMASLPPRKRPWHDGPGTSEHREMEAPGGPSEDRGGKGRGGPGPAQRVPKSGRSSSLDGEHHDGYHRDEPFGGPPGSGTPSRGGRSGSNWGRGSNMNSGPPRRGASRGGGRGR
Outline: as §1

[4] = target: ZCCHC24 (UniProt Q8N2G6)
Chain of ZCCHC24 (Q8N2G6 whole entry): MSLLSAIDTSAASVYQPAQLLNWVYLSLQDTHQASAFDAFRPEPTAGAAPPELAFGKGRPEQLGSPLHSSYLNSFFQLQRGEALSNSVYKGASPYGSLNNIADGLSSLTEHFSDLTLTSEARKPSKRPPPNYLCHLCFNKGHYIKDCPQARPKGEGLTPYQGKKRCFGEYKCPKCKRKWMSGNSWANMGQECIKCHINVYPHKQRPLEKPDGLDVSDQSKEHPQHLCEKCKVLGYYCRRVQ
Outline: as §1

Chain of XRN1 (Q8IZH2 whole entry): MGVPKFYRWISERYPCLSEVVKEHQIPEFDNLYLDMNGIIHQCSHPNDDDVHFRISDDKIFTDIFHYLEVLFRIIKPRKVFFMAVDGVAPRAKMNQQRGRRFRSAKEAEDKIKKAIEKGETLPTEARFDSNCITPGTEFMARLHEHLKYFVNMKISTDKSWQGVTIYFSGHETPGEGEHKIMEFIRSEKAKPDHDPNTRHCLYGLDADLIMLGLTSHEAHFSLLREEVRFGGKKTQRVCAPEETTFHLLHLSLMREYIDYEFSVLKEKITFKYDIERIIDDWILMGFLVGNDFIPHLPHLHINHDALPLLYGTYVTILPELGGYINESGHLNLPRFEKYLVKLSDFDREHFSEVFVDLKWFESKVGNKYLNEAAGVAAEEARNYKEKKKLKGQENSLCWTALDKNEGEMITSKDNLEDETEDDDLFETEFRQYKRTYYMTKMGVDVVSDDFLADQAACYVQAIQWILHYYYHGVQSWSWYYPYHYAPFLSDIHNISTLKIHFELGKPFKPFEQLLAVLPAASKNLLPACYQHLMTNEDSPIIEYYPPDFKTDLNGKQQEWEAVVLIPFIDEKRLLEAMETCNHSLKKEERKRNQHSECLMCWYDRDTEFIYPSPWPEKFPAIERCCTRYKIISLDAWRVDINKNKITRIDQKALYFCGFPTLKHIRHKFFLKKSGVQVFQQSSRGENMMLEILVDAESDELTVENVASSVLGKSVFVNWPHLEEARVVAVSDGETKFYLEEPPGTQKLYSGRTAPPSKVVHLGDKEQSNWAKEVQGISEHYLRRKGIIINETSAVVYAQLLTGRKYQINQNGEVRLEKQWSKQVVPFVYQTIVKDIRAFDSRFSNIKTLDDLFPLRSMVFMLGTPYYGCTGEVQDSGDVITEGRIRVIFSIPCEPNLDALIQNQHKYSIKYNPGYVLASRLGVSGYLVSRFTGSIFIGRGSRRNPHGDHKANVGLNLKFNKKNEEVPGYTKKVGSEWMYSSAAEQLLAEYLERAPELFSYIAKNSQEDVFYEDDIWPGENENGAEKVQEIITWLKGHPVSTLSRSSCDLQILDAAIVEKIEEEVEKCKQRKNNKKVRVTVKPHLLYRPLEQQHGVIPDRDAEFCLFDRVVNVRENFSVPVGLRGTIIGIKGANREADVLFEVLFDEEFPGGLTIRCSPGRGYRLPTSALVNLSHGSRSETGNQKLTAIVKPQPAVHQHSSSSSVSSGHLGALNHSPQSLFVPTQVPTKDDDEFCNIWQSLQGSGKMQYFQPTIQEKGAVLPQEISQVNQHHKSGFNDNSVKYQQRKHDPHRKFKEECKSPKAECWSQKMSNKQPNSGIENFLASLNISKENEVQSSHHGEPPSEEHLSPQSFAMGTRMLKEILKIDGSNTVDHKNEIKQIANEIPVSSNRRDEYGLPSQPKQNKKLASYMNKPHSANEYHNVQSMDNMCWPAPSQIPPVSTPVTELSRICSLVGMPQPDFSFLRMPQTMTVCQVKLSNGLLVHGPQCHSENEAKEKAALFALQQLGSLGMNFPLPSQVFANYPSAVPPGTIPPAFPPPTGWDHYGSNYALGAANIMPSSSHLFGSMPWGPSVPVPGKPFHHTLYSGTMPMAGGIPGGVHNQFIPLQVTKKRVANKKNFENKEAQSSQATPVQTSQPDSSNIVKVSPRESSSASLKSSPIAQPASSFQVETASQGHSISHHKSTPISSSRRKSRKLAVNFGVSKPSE

Sequence	Kd [1]	Kd [2]	Kd [3]	Kd [4]
UAUUUAU	106 nM	19.4 nM	338 nM	1910 nM
AAUAAA	197 nM	255 nM	5.98 nM	207 nM
